Results reported in article PMC3098264, “Crystal Structure of the PAC1R Extracellular Domain Unifies a Consensus Fold for Hormone Recognition by Class B G-Protein Coupled Receptors” (PLoS ONE, 2011).
“Also recorded” adds a separate entry of the source.

Target: T1, human PAC1R ECD (MBP-PAC1R (25–140)-His6) (Homo sapiens, UniProt P41586)
T1 construct: made in house; host or cells: E. coli Origami B (DE3), co-expressed with DsbC from pET-Duet1
T1 sequence (P41586 25-140 isoform P41586-3): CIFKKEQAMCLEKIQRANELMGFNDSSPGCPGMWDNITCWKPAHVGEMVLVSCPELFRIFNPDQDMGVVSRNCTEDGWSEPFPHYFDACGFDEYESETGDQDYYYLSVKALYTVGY
Test: AlphaScreen competitive peptide binding assay (unlabelled PACAP peptides vs biotin-PACAP (6–38)-NH2)
Conditions: Ala scanning mutants of PACAP (15–31), 120 µM untagged competing peptides, 40 nM protein and biotinylated PACAP, 20°C, five hours, pH 7.4
Experimental: The binding of PAC1R with a 35 residue PACAP peptide was analysed using the histidine detection kit of AlphaScreen® luminescent proximity assay from PerkinElmer. All binding assays were performed without cleaving the MBP tag from the receptor ECD. Using its C-terminal His tag, PAC1R was bound to Ni-chelate coated acceptor beads (5 µg/ml) at the final concentrations of 40 nM. Similarly, biotinylated PACAP was bound to streptavidin coated donor beads (5 µg/ml) at the final concentrations of 40 nM. The protein and peptide were pre-incubated with the respective beads for one hour (to ensure maximal binding to the beads), then they were allowed to interact with each other at 20°C for five hours. To perform competitive binding assays, 120 µM of the untagged competing peptides were added at time 0 of the five hour protein-peptide interaction period. All interactions were performed in the background of 50 mM MOPS pH 7.4, 150 mM NaCl and 7 mg/ml BSA. The binding signals were measured in a 384-well microplate using an Envision 2104 plate reader (PerkinElmer). The obtained data for competitive peptide binding were fit as a non-linear regression curve using the variable slope dose-response inhibition analysis using the Prism5.0 (GraphPad). To ensure the specificity of the competing peptides, a control peptide of biotin-Gly6-His6 was used in the same assay setup.

Row | Substance | effect of Ala mutation in PACAP (15–31) on binding to PAC1R ECD (Ala scanning)
1 | K20A′: Ala scanning mutant of PACAP (15–31) (KQMAVAKYLAAVLGKRY; Pituitary adenylate cyclase-activating polypeptide 38; UniProt P18509 146-162, looked up, variant K20A) | affect the binding to PAC1R the most; also recorded: almost completely abolishes the ability of the peptide to bind the receptor ECD
2 | L27A′: Ala scanning mutant of PACAP (15–31) (KQMAVKKYLAAVAGKRY; Pituitary adenylate cyclase-activating polypeptide 38; UniProt P18509 146-162, looked up, variant L27A) | seem to play important roles in the binding; also recorded: affect the binding to PAC1R the most
3 | V19A′: Ala scanning mutant of PACAP (15–31) (KQMAAKKYLAAVLGKRY; Pituitary adenylate cyclase-activating polypeptide 38; UniProt P18509 146-162, looked up, variant V19A) | seem to play important roles in the binding; also recorded: affect the binding to PAC1R the most
